Experimental data taken from paper PMC12125293.

Biological target: HR2 peptide of the SARS-CoV-2 spike (H1159-K1211), His-SUMO removed (SARS-CoV-2) (UniProt P0DTC2)
Experiment: crystal structure

Which stoichiometry N does the source give for “HR2 peptide of the SARS-CoV-2 spike (H1159-K1211), His-SUMO removed (from UniProt P0DTC2 1159-1211) (domain or fragment)” here?
Its stoichiometry N is 3.
